Experiments:
RecBΔNucCD [1] = target: T1, RecBΔNucCD (Escherichia coli, UniProt P08394;P07648;P04993 1-929;1-1122;1-608); assay: fluorescence titration
RecBΔNucCD [2] = target: T1, RecBΔNucCD; assay: fluorescence titration; remark: listed apart in the source
RecBCD [3] = target: T2, RecBCD (Escherichia coli, UniProt P08394;P07648;P04993 1-1180;1-1122;1-608); assay: fluorescence titration
RecBΔNucCD [4] = target: T1, RecBΔNucCD; assay: fluorescence competition
RecBCD [5] = target: T2, RecBCD; assay: fluorescence competition
RecBΔNucCD [6] = target: T1, RecBΔNucCD; assay: ITC
RecBΔNucCD [7] = target: T1, RecBΔNucCD; assay: ITC; remark: listed apart in the source
RecB = target: T3, RecB (E. coli, UniProt P08394 1-1180); assay: AUC
T3 sequence: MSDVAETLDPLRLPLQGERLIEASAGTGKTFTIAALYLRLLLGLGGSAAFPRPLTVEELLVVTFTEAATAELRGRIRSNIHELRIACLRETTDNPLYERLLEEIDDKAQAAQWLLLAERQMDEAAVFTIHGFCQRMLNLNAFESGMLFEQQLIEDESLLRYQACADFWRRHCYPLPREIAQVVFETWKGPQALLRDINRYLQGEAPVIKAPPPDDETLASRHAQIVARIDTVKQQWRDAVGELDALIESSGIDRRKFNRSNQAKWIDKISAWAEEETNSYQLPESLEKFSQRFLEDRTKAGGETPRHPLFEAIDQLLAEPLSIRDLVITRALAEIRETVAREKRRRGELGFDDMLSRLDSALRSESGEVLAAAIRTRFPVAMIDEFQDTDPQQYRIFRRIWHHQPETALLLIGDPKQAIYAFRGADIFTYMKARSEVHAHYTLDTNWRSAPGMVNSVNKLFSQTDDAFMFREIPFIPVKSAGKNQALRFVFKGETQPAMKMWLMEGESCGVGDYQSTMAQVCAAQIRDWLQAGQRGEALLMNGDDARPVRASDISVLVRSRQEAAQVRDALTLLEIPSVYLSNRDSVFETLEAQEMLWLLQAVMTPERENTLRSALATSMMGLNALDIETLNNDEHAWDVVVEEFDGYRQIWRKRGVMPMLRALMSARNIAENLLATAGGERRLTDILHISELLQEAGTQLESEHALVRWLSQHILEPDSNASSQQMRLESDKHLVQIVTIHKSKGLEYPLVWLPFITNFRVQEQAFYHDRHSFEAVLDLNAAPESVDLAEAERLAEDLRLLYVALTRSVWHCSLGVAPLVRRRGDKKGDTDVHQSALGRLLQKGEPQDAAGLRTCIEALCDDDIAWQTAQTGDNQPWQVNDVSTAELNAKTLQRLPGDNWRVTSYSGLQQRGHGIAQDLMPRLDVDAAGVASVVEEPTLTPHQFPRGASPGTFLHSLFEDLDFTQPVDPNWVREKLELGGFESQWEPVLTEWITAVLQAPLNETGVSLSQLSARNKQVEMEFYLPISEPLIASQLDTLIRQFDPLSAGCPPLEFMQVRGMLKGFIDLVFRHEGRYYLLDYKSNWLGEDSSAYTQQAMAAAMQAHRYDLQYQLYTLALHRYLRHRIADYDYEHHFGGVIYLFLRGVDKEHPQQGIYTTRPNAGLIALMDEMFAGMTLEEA

B1: Reference DNA (dsDNA)
DNA 1: CCATGGCTCCTGAGCTAGCTGCAGTAGCCTAAAGGATGAAACTAGGATCTTATGCTCCAGTTTT
DNA 2: CTGGAGCATAAGATCCTAGTTTCATCCTTTAGGCTACTGCAGCTAGCTCAGGAGCCATGGTTTT
RecBΔNucCD [1]
  Ka: > 2e+09 M⁻¹
RecBΔNucCD [2]
  Ka: 1.6e+08 M⁻¹
RecBCD [3]
  Ka: 3.2e+07 M⁻¹

B2: Blunt ended DNA (dsDNA)
DNA 1: CCATGGCTCCTGAGCTAGCTGCAGTAGCCTAAAGGATGAAACTAGGATCTTATGCTCCAG
DNA 2: CTGGAGCATAAGATCCTAGTTTCATCCTTTAGGCTACTGCAGCTAGCTCAGGAGCCATGG
RecBΔNucCD [4]
  Ka: 4.7e+07 M⁻¹
RecBCD [5]
  Ka: 1.4e+07 M⁻¹
RecBΔNucCD [6]
  Ka: > 1e+09 M⁻¹
RecBΔNucCD [7]
  Ka: 1.2e+07 M⁻¹

B3: RecC (natural protein)
chain: MLRVYHSNRLDVLEALMEFIVERERLDDPFEPEMILVQSTGMAQWLQMTLSQKFGIAANIDFPLPASFIWDMFVRVLPEIPKESAFNKQSMSWKLMTLLPQLLEREDFTLLRHYLTDDSDKRKLFQLSSKAADLFDQYLVYRPDWLAQWETGHLVEGLGEAQAWQAPLWKALVEYTHQLGQPRWHRANLYQRFIETLESATTCPPGLPSRVFICGISALPPVYLQALQALGKHIEIHLLFTNPCRYYWGDIKDPAYLAKLLTRQRRHSFEDRELPLFRDSENAGQLFNSDGEQDVGNPLLASWGKLGRDYIYLLSDLESSQELDAFVDVTPDNLLHNIQSDILELENRAVAGVNIEEFSRSDNKRPLDPLDSSITFHVCHSPQREVEVLHDRLLAMLEEDPTLTPRDIIVMVADIDSYSPFIQAVFGSAPADRYLPYAISDRRARQSHPVLEAFISLLSLPDSRFVSEDVLALLDVPVLAARFDITEEGLRYLRQWVNESGIRWGIDDDNVRELELPATGQHTWRFGLTRMLLGYAMESAQGEWQSVLPYDESSGLIAELVGHLASLLMQLNIWRRGLAQERPLEEWLPVCRDMLNAFFLPDAETEAAMTLIEQQWQAIIAEGLGAQYGDAVPLSLLRDELAQRLDQERISQRFLAGPVNICTLMPMRSIPFKVVCLLGMNDGVYPRQLAPLGFDLMSQKPKRGDRSRRDDDRYLFLEALISAQQKLYISYIGRSIQDNSERFPSVLVQELIDYIGQSHYLPGDEALNCDESEARVKAHLTCLHTRMPFDPQNYQPGERQSYAREWLPAASQAGKAHSEFVQPLPFTLPETVPLETLQRFWAHPVRAFFQMRLQVNFRTEDSEIPDTEPFILEGLSRYQINQQLLNALVEQDDAERLFRRFRAAGDLPYGAFGEIFWETQCQEMQQLADRVIACRQPGQSMEIDLACNGVQITGWLPQVQPDGLLRWRPSLLSVAQGMQLWLEHLVYCASGGNGESRLFLRKDGEWRFPPLAAEQALHYLSQLIEGYREGMSAPLLVLPESGGAWLKTCYDAQNDAMLDDDSTLQKARTKFLQAYEGNMMVRGEGDDIWYQRLWRQLTPETMEAIVEQSQRFLLPLFRFNQS
RecB
  binding result: binds
